Assay in all cases: purified protein
What all share (conditions): 0.1 mM NADPH, 100 mM Tris pH 7.5, 50 °C, 2% p-dioxane

Substrate in data set [1]: CC(=O)c1ccc(O)cc1
In kind it is biochemical, Tepidiforma thermophila.

Substrate in data set [2]: CC(=O)c1cccc(O)c1
It is filed as biochemical, Tepidiforma thermophila.

Substrate in data set [3]: CC(=O)CCc1ccccc1
Substrate in data set [4]: CC(=O)c1ccccc1
Substrate in data set [5]: CCC(=O)c1ccccc1
Substrate in data set [6]: CCCCCC(C)=O
Substrate in data set [7]: CCCCCCC(C)=O

B1: ssnBVMO (Tepidiforma thermophila) (protein)
chain: MTSNAPQSFDSIIVGAGFAGLYQLIRLRRAGFSARVIEAGDNVGGTWYWNRYPGARCDIESLQYQYAFDPGLAKEWRWTERYATQPEILRYIEFVADRYDLRRDIQFSTRVTAAHYDEAAARWTVHTDRGDLYSCRYLVMATGCLSVPKTPEVPGIETFEGESYHTGAWPHEGVDFTGKRVAVIGTGSSAIQSIPIIARQAAHLTVFQRTPNFSVPAHNYFLDEEQWRAAAERIAELRAEARTTSAGITGLPLNDVSALAVSEEERRREYERRWAMGGFAIGGAFNDIAINPDANETAAEFVRQKIREIVQDPETAEALCPRDYPFGTKRLCVDIAYYETFNRPNVKLVSIRDNPIAAITPKGVRLENGDEYEFDAIVYATGFDAMTGALLRIDIRGRDGLTLREKWEHGPRTYLGIQVAGFPNMFTITGPGSPSVLSNMIVSIEQHVDWVTDCLEYLRERDLATIEASPAAEDAWVNHVNEVANLTLYPRANSWYIGANVPGKPRVFMPYVGGVGAYAQKCAEVAANGYEGFILQPEPAALSR
As to B1, the Km in the data set “purified protein [1]” was 1280 ± 180 µM; in the data set “purified protein [2]”, 2500 ± 2000 µM; in “purified protein [3]”, 22 ± 12 µM; in the data set “purified protein [4]”, 2520 ± 610 µM; in “purified protein [5]” it was 373 ± 39 µM; in “purified protein [6]”, 3.7 ± 1.5 µM. Also, the Km in the data set “purified protein [7]” worked out at 20.1 ± 9.6 µM. Also, the catalytic constant (kcat) in “purified protein [1]” was determined as 0.455 ± 0.026 s⁻¹; in the data set “purified protein [2]” it was 0.127 ± 0.038 s⁻¹; in “purified protein [3]” it was 0.76 ± 0.10 s⁻¹; in the data set “purified protein [4]” it was 0.335 ± 0.018 s⁻¹; in the data set “purified protein [5]” it was 0.152 ± 0.003 s⁻¹; in the data set “purified protein [6]”, 0.455 ± 0.038 s⁻¹. In addition, the kcat in “purified protein [7]” was 0.671 ± 0.076 s⁻¹.

B2: PTDH-L1-ssnBVMO (Tepidiforma thermophila) (protein)
chain: MTSNAPQSFDSIIVGAGFAGLYQLIRLRRAGFSARVIEAGDNVGGTWYWNRYPGARCDIESLQYQYAFDPGLAKEWRWTERYATQPEILRYIEFVADRYDLRRDIQFSTRVTAAHYDEAAARWTVHTDRGDLYSCRYLVMATGCLSVPKTPEVPGIETFEGESYHTGAWPHEGVDFTGKRVAVIGTGSSAIQSIPIIARQAAHLTVFQRTPNFSVPAHNYFLDEEQWRAAAERIAELRAEARTTSAGITGLPLNDVSALAVSEEERRREYERRWAMGGFAIGGAFNDIAINPDANETAAEFVRQKIREIVQDPETAEALCPRDYPFGTKRLCVDIAYYETFNRPNVKLVSIRDNPIAAITPKGVRLENGDEYEFDAIVYATGFDAMTGALLRIDIRGRDGLTLREKWEHGPRTYLGIQVAGFPNMFTITGPGSPSVLSNMIVSIEQHVDWVTDCLEYLRERDLATIEASPAAEDAWVNHVNEVANLTLYPRANSWYIGANVPGKPRVFMPYVGGVGAYAQKCAEVAANGYEGFILQPEPAALSR
With B2, the Km came out at 760 ± 120 µM in “purified protein [1]”; 1590 ± 270 µM in the data set “purified protein [2]”; 3600 ± 790 µM in the data set “purified protein [4]”; 700 ± 140 µM in the data set “purified protein [5]”; 6.3 ± 3.1 µM in “purified protein [6]”; 25.7 ± 2.5 µM in “purified protein [7]”. Further, the kcat in the data set “purified protein [1]” stood at 0.301 ± 0.061 s⁻¹; in “purified protein [2]” it was 0.120 ± 0.023 s⁻¹; in “purified protein [4]”, 0.459 ± 0.081 s⁻¹; in the data set “purified protein [5]”, 0.371 ± 0.057 s⁻¹; in the data set “purified protein [6]”, 0.61 ± 0.11 s⁻¹; in “purified protein [7]” it was 0.536 ± 0.078 s⁻¹.
